# Experimental data: the nanobody polyreactivity screen of Harvey et al. (2022)
# Assay: yeast display, Sf9 membrane polyspecificity reagent, FACS + sequencing; frameworks hold sequencing errors
# How it was run: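 Nanobodies came from a synthetic yeast display library in Saccharomyces cerevisiae BJ5465, induced with galactose for 36–48 hours and stained for 1 hour at 4 °C with 10% biotinylated, detergent-solubilized Sf9 membrane reagent. Cells were enriched on streptavidin microbeads and then FACS-sorted, with low and high (top ~1%) gates set on anti-HA fluorescence for expression and streptavidin fluorescence for reagent binding. Each polyreactivity label reflects the gate a clone came from. Genes were amplified by colony PCR, sequenced by MiSeq 2 × 250 and filtered by CDR length.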
row,Sequence,polyreactivity (PSR sort gate)
1,QVQLVESGGGLVQAGGSLRLSCAASGSTFYQYAMGWYRQAPGKERELVAAITGSGTRTYYADSVKGRFTISRDNAKNTVYLQMNSLKPEDTAVYYCAAQKYYQGYNYWGQGTQVTVSS,high polyreactivity
2,QVQLVESGGGLVQAGGSLRLSCAASGSTFYQYVMGWYRQAPGKESELVAAISSSGGSTYYADSVKGRFTISRDNAKNTVYLQMTSLKPEDTAVYYCAVDNYRGYGHDYYWGQGTQVTVSS,low polyreactivity
3,QVQLVESGGGLVQAGGSLRLSCAASGSTFYRNAMAWYRQAPGKERELVAAISSTGGSTYYADSVKGRFTISRDNAKNTVYLQMNSLKPEDTAVYYCAVDPGLTKGFGYWGQGTQVTVSS,low polyreactivity
4,QVQLVESGGGLVQAGGSLRLSCAASGSTFYRNAMGWYRQAPGKEREFVADITLGGGSTYYADSVKGRFTISRDNAKNTVYLQMNSRKPEDTAVYYCAVDYWQLNYDYWGQGTQVTVSS,low polyreactivity
5,QVQLVESGGGLVQAGGSLRLSCAASGSTFYRYAMGWYRPAPGKERELVAAISSSGGSTYYADSVKGRFTISRDNAKNTVYLQMNSLKPEDTAVYYGNADVHSQYDYWGQGTQVTVSS,low polyreactivity
6,QVQLVESGGGLVQAGGSLRLSCAASGSTFYRYAMGWYRQAPGKERELVAAISGSGGRTYYADSVKGRFTISRDNAKNTVYLQMNSLKPEDTAVYYCATRFGQRSDYWGQGTQVTVSS,high polyreactivity
7,QVQLVESGGGLVQAGGSLRLSCAASGSTFYRYAMGWYRQAPGKERELVAAISQSGGRTYYADSVKGRFTISRDYAKNTVYLQMNSLKPEDTAVYYCAASWYYSLQRYGYWGQGTQVTVST,high polyreactivity
8,QVQLVESGGGLVQAGGSLRLSCAASGSTFYRYAMGWYRQAPGKERELVAAISSSGGRTYYADSVKGRFTISRDNAKKTVYLQMNSLKPEDTAVYYCAAKNAAYARYYYWGQGTQVTVSS,high polyreactivity
9,QVQLVESGGGLVQAGGSLRLSCAASGSTFYRYAMGWYRQAPGKERELVAAISSSGGSTYYADSVKGRFTISRDNAKNTVYLQMNSLKPEDTAVYYCNAALTPYDYDYWGQGTQVTVSS,low polyreactivity
10,QVQLVESGGGLVQAGGSLRLSCAASGSTFYRYAMGWYRQAPGKERELVAAITARGGSTYYADSVKGRFTISRDNAKNTVYLQMNSLKPEDTAVYYCAADWLSTKNDYWGQGTQVTESS,low polyreactivity
11,QVQLVESGGGLVQAGGSLRLSCAASGSTFYRYAMGWYRQAPGKERELVAAITRGGGRTYYADSVKGRFTISRDNAKNTVYLQMNSLKPEDTAVYYCNAASPYYDSWGQGTQVTVSS,high polyreactivity
12,QVQLVESGGGLVQAGGSLRLSCAASGSTFYRYAMGWYRQAPGKERELVADITRSGDSTYYADSVKGRFTISRDNAKNTVYLQMNSLKPEDTAVYYCAREYPTIRYRLGYWGQGTQVTVSS,low polyreactivity
13,QVQLVESGGGLVQAGGSLRLSCAASGSTFYRYAMGWYRQAPGKERELVASLTGSGGRTYYADSVKGRFTISRDNAKNTVYLQMNSLKPEDTAVYYCAARLYVRSVIGNAIVKYDYWGQGTQVTVSS,high polyreactivity
14,QVQLVESGGGLVQAGGSLRLSCAASGSTFYRYTMRWYRQAPGKERELVASIRWTGGRTNYADSVKGRFTISRDNAKNTVYLQMNSLKPEDTAVYYCAAYLKYPYAASYGSWGQGTQVTVSS,high polyreactivity
15,QVQLVESGGGLVQAGGSLRLSCAASGSTFYSNAMGWYRQAPGKERELVAAIDWGGGSTYYADSVKGRFTISRDNAKNTVYLQMNSLKPEDTAVYYCATDANGYYNYDYWGQGTQVTVSS,low polyreactivity
16,QVQLVESGGGLVQAGGSLRLSCAASGSTFYSNAMGWYRQAPGKERELVAGIDTSDGSTNYADSVKGRFTISRDHAMNTVYLQMNSLKPEDTAVYYCAADYTQPGFVSYDYWGQGSQVTVSS,low polyreactivity
17,QVQLVESGGGLVQAGGSLRLSCAASGSTFYSNAMGWYRQAPGKERELVASIRFSGVITTYADSVKGRFTISRDNAKNTVYLQMNSLKPEDTAVYYWAAGYLSTTAYDYWGQGTQVTVSS,low polyreactivity
18,QVQLVESGGGLVQAGGSLRLSCAASGSTFYSNVMGWYTQATGKEREFVAGISGSGGSTYYADSVKGRFTISRDNAKNTVYLQMNSLKPDDTAVYYCAKYRYSRYFRYDYWGQGTQVTVSS,high polyreactivity
19,QVQLVESGGGLVQAGGSLRLSCAASGSTFYSYAMGWYRQAPGKERELVAAIDSGGSTYYADTVKGRFTISRDNAKTTVYLQKNSLKPEDTAVYYCAVRVTSYYRTKDYWGQGTQVTVSS,low polyreactivity
20,QVQLVESGGGLVQAGGSLRLSCAASGSTFYSYAMGWYRQAPGKERELVAAIDWSGDNTNYADSVKGRFTISRDNAKNTVYLQMNSLKPEDTAVYYCAAVYSYYRLYAYPAYYYWGQGTQVTVSS,low polyreactivity
21,QVQLVESGGGLVQAGGSLRLSCAASGSTFYSYAMGWYRQAPGKERELVAAITKGGGSTYYADSVKGRFTISRDNAKNTVYLQMNSLIPEDTAVYYCAAPGLYWYYTRSVYDYWGQGTQVTVSS,high polyreactivity
22,QVQLVESGGGLVQAGGSLRLSCAASGSTFYSYAMGWYRQAPGKERELVAAITSGGSTNYADSVKGRFTISRDNAKNTVYLQMNSLKPEDTAVYYCAAVVSTVDGMEYWGQGTQVTVSS,low polyreactivity

row,Sequence,polyreactivity (PSR sort gate)
1,QVQLVESGGGLVQAGGSLRLSCAASGSTFYTNAMGWDRPAPGKEREVVAAISWSGSSTYADSVKGRFTISRDNAKNTVYLQMNSLKPEDTAVYYCAADWFKLRTDYYWGQGTQVTVSS,low polyreactivity
2,QVQLVESGGGLVQAGGSLRLSCAASGSTFYTNAMGWYRQAPGKERELVAAISASVGSTYYADSVKGRFTISRDNAKNTVYLQMNSLKPEDTAVYYCAADVWASRRYDYWGQGTQVTVSS,low polyreactivity
3,QVQLVESGGGLVQAGGSLRLSCAASGSTFYTNPMGWYRQAPGKERELVAAISGSGGSTYYADSVKGRFTISRDNAKNTVYLQMNSLKPEYTAVYYCAARSRYYDTRFDYWGQGTQVTVSS,low polyreactivity
4,QVQLVESGGGLVQAGGSLRLSCAASGSTFYTYTAMGWYRQAPGKERELVAAITWRGGSTYYADSVKGRFTISRDNAKNTVYLQLNSLKPEDTAVYYCNTVHYYRDYDYWGQGTQVTVSS,high polyreactivity
5,QVQLVESGGGLVQAGGSLRLSCAASGSTFYVNAMGWYRQAPGKERELVAAIRYSGGRTYYADSVKGRFTISRDNAKNTVYLQMNSLKPEDTAVYYCAATTYYGGLYTREFDYWGQGTQVTVSS,low polyreactivity
6,QVQLVESGGGLVQAGGSLRLSCAASGSTFYVNAMGWYRQAPGKERYADSVKGRFTISRDNAKNTVYLQMNSLKPEDTAVYYCAAKVPEPPSLDESDYWGQGTQVTVSS,low polyreactivity
7,QVQLVESGGGLVQAGGSLRLSCAASGSTFYVNDMGWYRQAPGKERELVATISSGSSTYYADSVKGRFTISRDNAKNTVYLQMNSLKPEDTAVYYCAADGVAEEGFDARYDYWGQGTQVTVSS,low polyreactivity
8,QVQLVESGGGLVQAGGSLRLSCAASGSTFYVNTLGWYRQAPGKERELVAAISGSGTSTYYADSVKGRFTISRDNAKNTVYLQMNSLKPEDTAVYYCNKYQLVRTYGSYSYYYWGQGTQVTVSS,high polyreactivity
9,QVQLVESGGGLVQAGGSLRLSCAASGSTFYVYAMGWYRQAPGKEREFVAAISFSSGSTYYADSVKGRFTISRDNAKNTVYLQMNMMNQEDTAVYDCAARYRYPRYIGYGYGGAFVYWGQGTQVTVSS,high polyreactivity
10,QVQLVESGGGLVQAGGSLRLSCAASGSTFYVYAMGWYRQAPGKERELVAAIRGGGSTNYADSVKGRFTISRDNAKNTVYLQMNSLKPEDTAVYYCAKLPYTRTYLGSLYDYWGQGTQVTVSS,high polyreactivity
11,QVQLVESGGGLVQAGGSLRLSCAASGSTFYVYGMGWYRQAPGKERELVATISSSGAITYYADSVKGRFTISRDNAKNTVYLQMNSLKPEDTAVYYCARTGSLLSQVWYTYWGQGTQVTVSS,low polyreactivity
12,QVQLVESGGGLVQAGGSLRLSCAASGSTFYWNVMGWYRQAPGKERELVAAINRSDGSTYYADSVKGRFTISRDNAKNTVYLQMNSLKPEDTAVYFCNAVTKHPQSVPYAYGYWGQGTQVTVSS,high polyreactivity
13,QVQLVESGGGLVQAGGSLRLSCAASGSTFYWYAMGWYRHAPGKEREFVADIDWSGGSTYYADSVKGRFTISLDNAKNTVYLQMNSLKPEDTAVYYCAAVGAAGQDNYWGQGTQVTVSS,high polyreactivity
14,QVQLVESGGGLVQAGGSLRLSCAASGSTFYWYAMGWYRQAPGKERELVAAIDSGGSTNYADSVKGRFTISRDNAKNTVYLQMNSLKPEDTAVYYCATVYYTIWDPTYEYDYWGQGTQVTVSS,low polyreactivity
15,QVQLVESGGGLVQAGGSLRLSCAASGSTFYWYAMGWYRQAPGKERELVAAISSGGSTYYADSVKGRFTISRDNAKNTVYLQMNSLKPEDTAVYYCAAQTPYYLWYDTGDYWGQGTQVTVSS,high polyreactivity
16,QVQLVESGGGLVQAGGSLRLSCAASGSTFYYGMGWYRQAPGKERELVAAISSRGGTTYYADSVKGRFTISRDNAKNTVYLQMNSLKPEDTAVYYCAAPVPYYVPRRNEGDYWGQGTQVTVSS,low polyreactivity
17,QVQLVESGGGLVQAGGSLRLSCAASGSTFYYNAMGWYRQAPGKEREFVAAINWRGGSTYYADSVKGRFTISRDNAKNTVYLQMNSLTPEDTAVYYCAAEEPSTYYYVRSGYDYHFWEMYSWGQGTQVTVSS,low polyreactivity
18,QVQLVESGGGLVQAGGSLRLSCAASGSTFYYNAMGWYRQAPGKERELVAAITFTGGSTYADSVKGRFTISRDNAKNTVYLQMNSLKPEDTAVYYCAATIQGHDYLGTGYDYWGQGTQVTVSS,low polyreactivity
19,QVQLVESGGGLVQAGGSLRLSCAASGSTFYYNGMGWYRQAPGKERELVAAITWTGDSTYYADSVKGRFTISRDNAKNTVYLQMNCLKPEDTAVYYCAAYYRKTGYDYWGQGTQVTVSS,high polyreactivity
20,QVQLVESGGGLVQAGGSLRLSCAASGSTFYYNTMGWYRQAPGKERELVAAISSSGGTTYYADSVKGRFTISRDNAKNTVYLQMNSLKPEDTAVYYCNVATIWYSYARGYGYWGQGTQVTVSS,high polyreactivity
21,QVQLVESGGGLVQAGGSLRLSCAASGSTFYYNTMGWYRQAPGKERELVAAISWRGGSTYYADSVKGRYTISRDNAKNTVYLQMNSLKPEDTAVYYCAALTYYGSDYWGQGTQVTVSS,high polyreactivity
